{"source": "patent US10588946B2", "about": "“Peptide for promoting bone formation or inhibiting bone resorption and use thereof” (SEOUL NATIONAL UNIVERSITY R&DB FOUNDATION, priority 2015, dated 2020)", "key": {"osteogenic cells [1]": {"system": "osteogenic cells", "test": "Adhesion inhibition assay (cell attachment to VnP-16 after preincubation)", "type": "cell-based, human", "conditions": "5 mM EDTA, 500 μM MnCl2, 100 μg/mL heparin, 10 μg/mL blocking antibody; VnP-16 9.1 μg/cm^2, 1 hour", "experimental": "Cells (5×10^4 cells/250 μL) were preincubated with 5 mM EDTA, 500 μM MnCl2, 100 μg/mL heparin, and 10 μg/mL function-blocking antibodies against integrin α1 (FB12), α2 (P1E6), α3 (P1B5), α4 (P4C2), α5 (P1D6), α6 (NKI-GoH3), β3 (B3A; Chemicon), av (AV1), β1 (6S6; Millipore), or β3 (B3A) subunits at 37° C. for 15 minutes. […] The attached cells were quantified as described in Example 6."}, "FAK": {"molecular_target": "FAK (Homo sapiens, UniProt Q05397)", "sequence (Q05397 whole entry)": "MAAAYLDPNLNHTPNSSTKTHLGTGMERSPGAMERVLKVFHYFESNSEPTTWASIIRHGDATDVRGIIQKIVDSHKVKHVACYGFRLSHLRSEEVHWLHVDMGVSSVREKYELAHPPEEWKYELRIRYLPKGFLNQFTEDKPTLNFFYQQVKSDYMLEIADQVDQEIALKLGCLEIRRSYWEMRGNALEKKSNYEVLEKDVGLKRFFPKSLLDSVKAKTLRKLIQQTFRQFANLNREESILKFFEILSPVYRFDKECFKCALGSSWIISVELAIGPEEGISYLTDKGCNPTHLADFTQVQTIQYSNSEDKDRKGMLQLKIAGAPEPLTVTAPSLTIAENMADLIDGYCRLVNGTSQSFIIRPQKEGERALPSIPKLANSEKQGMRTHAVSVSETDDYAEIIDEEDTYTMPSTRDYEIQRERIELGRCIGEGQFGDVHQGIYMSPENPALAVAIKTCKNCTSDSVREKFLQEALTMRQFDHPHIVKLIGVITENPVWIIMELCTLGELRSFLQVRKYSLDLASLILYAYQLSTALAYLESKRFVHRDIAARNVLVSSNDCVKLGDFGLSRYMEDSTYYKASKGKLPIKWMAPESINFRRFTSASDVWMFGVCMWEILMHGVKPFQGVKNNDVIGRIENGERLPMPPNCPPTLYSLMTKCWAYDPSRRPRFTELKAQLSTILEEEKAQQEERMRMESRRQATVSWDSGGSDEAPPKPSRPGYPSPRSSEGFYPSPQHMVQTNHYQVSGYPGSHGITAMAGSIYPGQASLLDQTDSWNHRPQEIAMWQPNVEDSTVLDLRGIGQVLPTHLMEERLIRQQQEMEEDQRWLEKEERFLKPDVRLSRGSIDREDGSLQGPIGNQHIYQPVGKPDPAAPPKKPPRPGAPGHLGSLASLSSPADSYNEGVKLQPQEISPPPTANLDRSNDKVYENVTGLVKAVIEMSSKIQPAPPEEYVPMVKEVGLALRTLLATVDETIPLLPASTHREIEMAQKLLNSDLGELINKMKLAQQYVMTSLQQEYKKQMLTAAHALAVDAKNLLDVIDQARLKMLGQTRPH", "conditions": "pretreated 1 hour; VnP-16 9.1 μg/cm^2"}, "[2]": {"system": "osteoblast precursors and osteogenic cells", "method": "SKP-derived mesenchymal cells (MSCs), mouse calvarial osteoblast precursors (MC3T3-E1), and human osteogenic cells (Osteogenic) were cultured on VnP-16 (9.1 μg/cm^2)-coated plates in osteogenic differentiation medium with or without PF-573228 (1 μM) for 2 weeks.\nTo visualize mineral deposits, cells were fixed with cold 95% ethanol for 30 minutes at −20° C. for 30 minutes and stained with 40 mM Alizarin red S solution (pH 4.2) for 1 hour. The stained cells were washed five times with DDW and rinsed with PBS for 15 minutes."}, "osteogenic cells [3]": {"system": "osteogenic cells", "test": "Cell spreading assay on coated plates", "type": "cell-based, human", "conditions": "serum-free medium, 3 hours", "from_the_text": "(§1) Plates were gently washed three times with PBS."}, "[4]": {"system": "rat models with critical-size calvarial defects", "test": "Rat critical-size calvarial defect model", "type": "in vivo", "conditions": "collagen sponge implant, two weeks after surgery", "experimental": "For critical-size calvarial defects, 8-week-old male Sprague-Dawley rats (n=5 rats/group) were used. VnP-16 was dissolved in DDW and SP in DMSO (5 mg/mL) and then diluted with DDW. Absorbable collagen sponges (Bioland) were loaded with human recombinant BMP-2 (4 μg/cm^2, 15 μL volume; PeproTech), synthetic peptides (1 mg/cm^2 and 2 mg/cm^2, 15 μL volume), or vehicle (10 μL of DMSO and 5 μL of DDW). The surgical procedures for the creation of an 8 mm circular defect in the parietal bone and implantation of the collagen sponge were performed as described in the reference (Lee, J. H., et al., Biomaterials, 31, 3512 to 3519 (2010)). The rats were euthanized at 2 weeks after surgery, and whole calvaria were fixed in 4% paraformaldehyde at 4° C. for 24 hours and analyzed by μCT scanning. Details for the μCT scans are illustrated below.\nFor histomorphometric analysis, the specimens were decalcified with 12% EDTA for 4 weeks and embedded in paraffin. […] The mice were sacrificed on day 7, and the whole calvariae were dissected, cleaned of soft tissue, fixed in 4% paraformaldehyde at 4° C. for 24 hours, subjected to TRAP staining, and then analyzed by μCT scanning. μCT was performed with the Micro-CT Skyscan 1172 system (70 kV, 141 μA, and 38 minutes integration time; Skyscan). […] The regenerated bone volume and bone mineral content were calculated with CT Analyser version 1.14.4.1 (Bruker-microCT). […]"}, "[5]": {"system": "osteogenic cells, NHDFs, NHOFs, MC3T3-E1, and NIH/3T3 cells", "test": "Cell viability assay (water-soluble tetrazolium salt, WST)", "type": "cell-based, human", "conditions": "VnP-16 for 24 hours and 48 hours", "experimental": "The viability of human osteogenic cells was analyzed using the EZ-Cytox cell viability assay kit (water-soluble tetrazolium salt (WST) assay; Daeillab). Osteogenic cells (3×10^3 cells/100 μL) were seeded on a 96-well microplate, adapted for 48 hours, and treated with 50 μg/mL, 100 μg/mL, or 200 μg/mL of VnP-16 at 37° C. for 24 hours or 48 hours. The WST reagent solution (10 μL) was added to each well of the 96-well microplate containing 100 μL of cells. The plate was incubated at 37° C. for 2 hours. The absorbance was measured at 450 nm using a microplate reader (BioRad)."}, "BMMs": {"system": "BMMs", "test": "Proliferation and viability of BMMs", "type": "cell-based, mouse", "conditions": "9.1 μg/cm^2"}, "mature osteoclasts": {"system": "mature osteoclasts", "test": "Viability of mature osteoclasts (surviving osteoclasts after TRAP staining)", "type": "cell-based, mouse", "conditions": "24 hours, 9.1 μg/cm^2", "experimental": "The results of FIGS. 12b and 12c are expressed as mean±S.D. (n=4) ([…].)\nMature osteoclasts were cultured for 24 hours on Osteo Assay Surface plates precoated with vehicle (DMSO), SP (9.1 μg/cm^2), or VnP-16 (9.1 μg/cm^2), in the presence of M-CSF (30 ng/mL) and RANKL (100 ng/mL)."}, "β1 integrin": {"molecular_target": "T1, β1 integrin (Homo sapiens, UniProt P05556)", "T1 construct": "osteogenic cells that were transfected with a control (Con) siRNA (10 nM) or β1 integrin siRNA (10 nM); endogenous in cells; host or cells: human osteogenic cells differentiated from foreskin skin-derived precursors (SKPs)", "T1 sequence (P05556 21-798)": "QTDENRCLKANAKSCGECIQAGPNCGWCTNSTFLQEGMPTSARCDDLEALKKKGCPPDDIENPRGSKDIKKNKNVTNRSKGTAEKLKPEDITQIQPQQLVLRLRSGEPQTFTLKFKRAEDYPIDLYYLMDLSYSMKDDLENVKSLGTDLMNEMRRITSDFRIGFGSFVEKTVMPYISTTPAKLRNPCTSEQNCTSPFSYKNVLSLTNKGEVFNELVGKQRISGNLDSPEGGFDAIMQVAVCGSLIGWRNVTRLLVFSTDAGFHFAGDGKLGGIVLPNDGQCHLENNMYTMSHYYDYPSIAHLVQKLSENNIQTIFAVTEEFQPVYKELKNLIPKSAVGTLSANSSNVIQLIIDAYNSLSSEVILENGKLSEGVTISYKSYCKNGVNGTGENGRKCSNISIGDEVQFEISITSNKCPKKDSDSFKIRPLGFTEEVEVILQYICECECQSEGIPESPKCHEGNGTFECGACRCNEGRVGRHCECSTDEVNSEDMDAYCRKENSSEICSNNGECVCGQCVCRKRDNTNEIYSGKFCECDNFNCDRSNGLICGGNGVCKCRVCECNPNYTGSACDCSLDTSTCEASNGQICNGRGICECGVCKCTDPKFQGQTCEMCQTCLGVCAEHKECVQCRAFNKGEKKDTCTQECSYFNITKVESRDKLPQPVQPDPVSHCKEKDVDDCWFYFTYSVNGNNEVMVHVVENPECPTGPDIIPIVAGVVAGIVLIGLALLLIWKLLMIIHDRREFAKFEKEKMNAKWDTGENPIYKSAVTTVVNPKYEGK", "test": "Pulldown assay with biotinylated VnP-16", "type": "binding", "conditions": "human osteogenic cells and HOS cells, 3 hours; vs streptavidin beads alone", "experimental": "Pulldown assays were performed using a biotinylated VnP-16 peptide according to a known method (Bottcher, R. T., Bio protocol 3, e962 (2013)). […] Cells (3×10^6) were seeded onto 100 mm culture dishes coated with biotin-conjugated VnP-16 peptides, incubated for 3 hours, and washed twice with cold PBS. The cells were scraped with 500 μL lysis buffer (50 mM Tris-HCl, pH 7.5, 150 mM NaCl, 0.1% Na-deoxycholate, 1% Triton X-100, protease, and phosphatase inhibitor cocktail tablets) followed by passing the lysates 15 times through a 26.5-gauge needle and centrifuging at 17,000×g for 10 minutes at 4° C. The supernatants of the cell lysates were incubated with 60 μL of streptavidin-agarose beads (Thermo Fisher Scientific, Waltham, Mass.) and centrifuged at 1,500×g for 2 minutes at 4° C. After washing the beads four times with lysis buffer, the precipitated proteins were resolved by 8% SDS-PAGE and analyzed by immunoblotting."}, "human osteogenic cells": {"system": "human osteogenic cells", "test": "Cell attachment assay on coated plates", "type": "cell-based", "conditions": "for coating concentration at which cell attachment activity reached a maximum level: osteogenic cells, dose-response; for cell attachment activity of osteogenic cells: substrate-coated plates, serum-free medium, 1 hour", "from_the_text": "as §1"}, "osteogenic cells [6]": {"system": "osteogenic cells", "test": "Cell migration assay (transwell)", "type": "cell-based, human", "conditions": "24 hours", "experimental": "Cell migration assays were performed with transwell migration chambers (pore size, 8 μm; Corning). […] Cells (2×10^5 cells/mL) were resuspended in DMEM containing 0.5% FBS and 0.1% BSA. This suspension (100 μL) was seeded in the upper chamber of a transwell filter. After seeding the […] (100 μL) to the upper chamber of the transwell migration chambers, the cells were allowed to migrate at 37° C. for 24 hours. Cells were then fixed with 10% formalin for 15 minutes and stained with 0.5% crystal violet. Unmigrated cells, those remaining in the upper side of the transwell filter, were removed with a cotton swab and counted under light microscopy. Cell migration was quantified by counting the number of cells that had migrated through the filter."}, "[7]": {"conditions": "VnP-16-coated plates, osteogenic differentiation medium, PF-573228 1 μM, 2 weeks"}}, "note": "Entries after “also recorded” stand apart in the source; their conditions may differ. Where no end group is shown, it is not given here."}
{"molecule": "O=C(O)CN(CCN(CC(=O)O)CC(=O)O)CC(=O)O", "note": "[EDTA]", "values": [{"measurement": "cell attachment to VnP-16 after pretreatment of cells", "setting": "osteogenic cells [1]", "result": "completely inhibited"}]}
{"molecule": "[Cl][Mn][Cl]", "note": "[Mn^2+, MnCl2]", "values": [{"measurement": "cell attachment to VnP-16 after pretreatment of cells", "setting": "osteogenic cells [1]", "result": "significantly enhanced"}]}
{"molecule": "CS(=O)(=O)c1cccc(CNc2nc(Nc3ccc4c(c3)CCC(=O)N4)ncc2C(F)(F)F)c1", "note": "[PF-573228]", "values": [{"measurement": "cell attachment to VnP-16 after pretreatment of PF-573228", "setting": "FAK", "result": "significantly inhibited in a dose-dependent manner"}, {"measurement": "cell growth", "setting": "[2]", "result": "did not affect"}, {"measurement": "alkaline phosphatase (ALP) activity", "setting": "[2]; [7]", "result": "notably weakened"}, {"measurement": "calcium deposition", "setting": "[2]; [7]", "result": "reduced"}]}
{"molecule": "FVWRQFYKYEKG (SEQ ID NO: 23) (Scrambled peptide) [SP, scrambled peptide used as control, reference compound]", "values": [{"measurement": "cell spreading", "setting": "osteogenic cells [3]", "result": "ineffective"}, {"measurement": "new bone formation in calvarial defects (μCT images)", "setting": "[4]", "result": "only limited new bone formation"}]}
{"molecule": "RVYFFKGKQYWE-NH2 [VnP-16, RVYFFKGKQYWE (SEQ ID NO: 17)]", "values": [{"measurement": "viability of cells or cell lines tested", "setting": "[5]", "result": "did not affect"}, {"measurement": "cell proliferation and viability of BMMs", "setting": "BMMs", "result": "did not affect"}, {"measurement": "viability of osteoclasts", "setting": "mature osteoclasts", "result": "no effect"}]}
{"molecule": "biotinylated VnP-16: biotin-conjugated VnP-16 peptide used for pulldown (RVYFFKGKQYWE-NH2; also: biotinylated)", "values": [{"measurement": "binding of β1 integrin in pulldown", "setting": "β1 integrin", "result": "selectively bound"}]}
{"molecule": "heparin", "values": [{"measurement": "cell attachment to VnP-16 after pretreatment of cells", "setting": "osteogenic cells [1]", "result": "not inhibited"}]}
{"molecule": "rVn-FI: recombinant human vitronectin truncation I expressed in E. coli (protein, rVn-FI, recombinant human vitronectin truncation I expressed in E. coli) DQESCKGRCTEGFNVDKKCQCDELCSYYQSCCTDYTAECKPQVTRGDVFTMPEDEYTVYDDGEEKNNATVHEQVGGPSLTSDLQAQSKGNPEQTPVLKPEEEAPAPEVGASKPEGIDSRPETLHPGRPQP", "values": [{"measurement": "coating concentration at which cell attachment activity reached a maximum level", "setting": "human osteogenic cells", "result": "about 5.7 μg/cm^2"}, {"measurement": "cell attachment activity of osteogenic cells", "setting": "human osteogenic cells", "result": "adhered; also recorded: promoted cell attachment, although to a lower extent than full-length vitronectin"}, {"measurement": "cell spreading", "setting": "osteogenic cells [3]", "result": "induced cell spreading and migration"}, {"measurement": "cell migration", "setting": "osteogenic cells [6]", "result": "induced cell spreading and migration"}]}
{"molecule": "human plasma vitronectin: Human vitronectin purchased from Millipore (protein, UniProt P04004 20-478, looked up) Vitronectin: DQESCKGRCTEGFNVDKKCQCDELCSYYQSCCTDYTAECKPQVTRGDVFTMPEDEYTVYDDGEEKNNATVHEQVGGPSLTSDLQAQSKGNPEQTPVLKPEEEAPAPEVGASKPEGIDSRPETLHPGRPQPPAEEELCSGKPFDAFTDLKNGSLFAFRGQYCYELDEKAVRPGYPKLIRDVWGIEGPIDAAFTRINCQGKTYLFKGSQYWRFEDGVLDPDYPRNISDGFDGIPDNVDAALALPAHSYSGRERVYFFKGKQYWEYQFQHQPSQEECEGSSLSAVFEHFAMMQRDSWEDIFELLFWGRTSAGTRQPQFISRDWHGVPGQVDAAMAGRIYISGMAPRPSLAKKQRFRHRNRKGYRSQRGHSRGRNQNSRRPSRATWLSLFSSEESNLGANNYDDYRMDWLVPATCEPIQSVFFFSGDKYYRVNLRTRRVDTVDPPYPRSIAQYWLGCPAPGHL", "values": [{"measurement": "cell attachment activity of osteogenic cells", "setting": "human osteogenic cells", "result": "strongly promoted"}, {"measurement": "cell spreading", "setting": "osteogenic cells [3]", "result": "strongly promoted"}, {"measurement": "cell migration", "setting": "osteogenic cells [6]", "result": "strongly promoted"}]}
{"molecule": "rVn-FII: recombinant human vitronectin truncation, 173 residues, amino acids at positions 150 to 322 (protein, rVn-FII) PAEEELCSGKPFDAFTDLKNGSLFAFRGQYCYELDEKAVRPGYPKLIRDVWGIEGPIDAAFTRINCQGKTYLFKGSQYWRFEDGVLDPDYPRNISDGFDGIPDNVDAALALPAHSYSGRERVYFFKGKQYWEYQFQHQPSQEECEGSSLSAVFEHFAMMQRDSWEDIFELLFW", "values": [{"measurement": "coating concentration at which cell attachment activity reached a maximum level", "setting": "human osteogenic cells", "result": "about 5.7 μg/cm^2"}, {"measurement": "cell attachment activity of osteogenic cells", "setting": "human osteogenic cells", "result": "lower cell attachment activity compared to that of rVn-FI; also recorded: adhered; also recorded: promoted cell attachment, although to a lower extent than full-length vitronectin; also recorded: significant cell attachment activity"}, {"measurement": "cell spreading", "setting": "osteogenic cells [3]", "result": "induced no cell spreading or migration"}, {"measurement": "cell migration", "setting": "osteogenic cells [6]", "result": "induced no cell spreading or migration"}]}
{"molecule": "rVn-FIII: recombinant human vitronectin truncation III expressed in E. coli (protein, rVn-FIII, recombinant human vitronectin truncation III expressed in E. coli) GRTSAGTRQPQFISRDWHGVPGQVDAAMAGRIYISGMAPRPSLAKKQRFRHRNRKGYRSQRGHSRGRNQNSRRPSRATWLSLFSSEESNLGANNYDDYRMDWLVPATCEPIQSVFFFSGDKYYRVNLRTRRVDTVDPPYPRSIAQYWLGCPAPGHL", "values": [{"measurement": "cell attachment activity of osteogenic cells", "setting": "human osteogenic cells", "result": "did not adhere"}, {"measurement": "cell spreading", "setting": "osteogenic cells [3]", "result": "induced no cell spreading or migration"}, {"measurement": "cell migration", "setting": "osteogenic cells [6]", "result": "induced no cell spreading or migration"}]}
